# Data taken from paper PMC9303389, “On the stability of stalled RNA polymerase and its removal by RapA” (Nucleic Acids Research, 2022).
# Substrate: Nc1ncnc2c1ncn2[C@@H]1O[C@H](COP(=O)(O)OP(=O)(O)OP(=O)(O)O)[C@@H](O)[C@H]1O
# Test: single-molecule magnetic trapping, stalled RNAP dissociation lifetime versus [ATP]
# Format: biochemical, Escherichia coli
# Details: saturating RapA, RNAP stalled at +20 on positively supercoiled DNA, 0.3 pN, 200 μM GTP and UTP, 8 mM MgCl2, pH 8.0, 34°C, kcat is RNAP dissociation rate at saturating RapA and ATP, not ATP hydrolysis
protein,measurement,value
"RapA-RNAP complex (Escherichia coli K-12) (protein, full-length RapA, N-terminal His6 tag (pQE80L, expressed in BL21(DE3)), 110 kDa; RNAP core saturated with sigma70 (rpoD) for initiation, then stalled as elongation complex on DNA; with DNA-directed RNA polymerase subunit alpha; DNA-directed RNA polymerase subunit beta; DNA-directed RNA polymerase subunit beta'; DNA-directed RNA polymerase subunit omega) PFTLGQRWISDTESELGLGTVVAVDARTVTLLFPSTGENRLYARSDSPVTRVMFNPGDTITSHDGWQMQVEEVKEENGLLTYIGTRLDTEESGVALREVFLDSKLVFSKPQDRLFAGQIDRMDRFALRYRARKYSSEQFRMPYSGLRGQRTSLIPHQLNIAHDVGRRHAPRVLLADEVGLGKTIEAGMILHQQLLSGAAERVLIIVPETLQHQWLVEMLRRFNLRFALFDDERYAEAQHDAYNPFDTEQLVICSLDFARRSKQRLEHLCEAEWDLLVVDEAHHLVWSEDAPSREYQAIEQLAEHVPGVLLLTATPEQLGMESHFARLRLLDPNRFHDFAQFVEEQKNYRPVADAVAMLLAGNKLSNDELNMLGEMIGEQDIEPLLQAANSDSEDAQSARQELVSMLMDRHGTSRVLFRNTRNGVKGFPKRELHTIKLPLPTQYQTAIKVSGIMGARKSAEDRARDMLYPERIYQEFEGDNATWWNFDPRVEWLMGYLTSHRSQKVLVICAKAATALQLEQVLREREGIRAAVFHEGMSIIERDRAAAWFAEEDTGAQVLLCSEIGSEGRNFQFASHMVMFDLPFNPDLLEQRIGRLDRIGQAHDIQIHVPYLEKTAQSVLVRWYHEGLDAFEHTCPTGRTIYDSVYNDLINYLASPDQTEGFDDLIKNCREQHEALKAQLEQGRDRLLEIHSNGGEKAQALAESIEEQDDDTNLIAFAMNLFDIIGINQDDRGDNMIVLTPSDHMLVPDFPGLSEDGITITFDREVALAREDAQFITWEHPLIRNGLDLILSGDTGSSTISLLKNKALPVGTLLVELIYVVEAQAPKQLQLNRFLPPTPVRMLLDKNGNNLAAQVEFETFNRQLNAVNRHTGSKLVNAVQQDVHAILQLGEAQIEKSARALIDAARNEADEKLSAELSRLEALRAVNPNIRDDELTAIESNRQQVMESLDQAGWRLDALRLIVVTHQ",Km,160 ± 35 µM
same,kcat,1.1 × 10^–3 ± 0.5 × 10^–5 s^–1
